4 molecules from patent US20100322941A1 (published 2010) can be followed below.

The target in assay [1] is T1, recombinant human IP-10 (human, UniProt P02778 22-98).
T1 construct: mature; also called hIP-10; rhIP-10
T1 sequence (looked up): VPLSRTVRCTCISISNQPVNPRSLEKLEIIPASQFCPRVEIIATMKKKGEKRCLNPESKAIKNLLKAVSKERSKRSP
The assay is described as follows: cell-based or functional assay.

The target of assay [2] is T1, recombinant human IP-10. Briefly: SPR (Biacore 2000); the text's value differs from Table 8 (9.2 × 10^-9 M). On the procedure: 200RU (response unit) of a goat anti-human polyclonal IgG (ahIgG; Biacore AB, Uppsala, Sweden) were immobilized by EDC/NHS chemistry on a C1 Biacore chip. […] The surface was regenerated after each cycle by injection of 10 mM glycine pH=1.5 at 30 μL/min, for 30 s followed by 1 min. of stabilization time in HBS-EP buffer.
Binding was measured by passing either hIP-10 (Peprotech, Rocky Hill N.J.) or a NusA-hIP-10 fusion protein at the following concentrations: 34.7 nM, 11.6 nM, 3.85 nM, 1.28 nM, 0.428 nM, 0.142 nM and OnM. All solutions were diluted in HBS-EP buffer (Biacore AB, Uppsala, Sweden). Injection was performed at 50 μl/min for 3 min. followed by 12 min. of dissociation time and the temperature was set at 25° C. […] Very similar values were obtained using rhIP-10 or the NusA-hIP-10 fusion, but better response signals were obtained with the fusion protein due to its larger size that induces a better response on the Biacore.
On the technique in general: In SPR one partner is held on a chip, and binding of the other changes the refractive index at the surface.

B1: CC21R3P5_C5 (scFv format) (scFv, part only; not given: linker and tags, part only)
scFv, part: QVQLVQSGGGVVQPGRSLRLSCAASGFTFSTYGMHWVRQAPGKGLEWVAVISYDGGTKYYADSVKGRFTISRDNSMKTLYLQMNSLRTEDTAVYYCAKDLGDLPPGLDYWGRGTMVTVSSCHEMICALLYSYNTHESIZEDSYELTQPPSVSVALGQTATITCGGSSIESKSVHWYQEKPGQAPVLVIYKDSNRPSVIPERFSGSNSGNTATLTIGRAQAGDEADYYCQVWDSSTGVVFGGGTKLTVL
On to B1, for which, in the assay with recombinant human IP-10 [1], the Calcium flux IC50 (nM); hCXCR3-expressing L1.2 cells, 10 nM hIP-10 came out at 89 nM and the Chemotaxis IC50 (nM); hCXCR3-expressing L1.2 cells, 1 nM hIP-10 is 90 nM.

B2: CC21R3P1_F1 (scFv format) (scFv, part only; not given: linker, domain order, vector tags, V domains shown, not shown: another chain or arm of the molecule; small tags and cut ends)
VH: QVQLVESGGGVVQPGRSHTLSCAASGFAFKNSGIHWVRQAPGKGLEWVAVISYDGSNKFYADSVKGRFTISRDNSQNTVYLQMTDLRPDDTAVYYCARDGSESEYLDYWGKGTLVTVSS
VL: NFMLTQPHSVSESPGKTVTISCTGSGGSIDRNYVQWYQQRPGSAPITVIYEDNQRPSGVPDRFSGSIDSSSNSASLTISGLRTDDEADYYCQSYDSINLWVFGGGTKVTVL
On to B2, for which, in the assay with recombinant human IP-10 [1], the Calcium flux IC50 (nM); hCXCR3-expressing L1.2 cells, 10 nM hIP-10 turned out to be 36 nM and the Chemotaxis IC50 (nM); hCXCR3-expressing L1.2 cells, 2 nM hIP-10 stood at 18 nM.

B3: CF1A11R3P3_F3 (scFv format) (scFv, part only; not given: linker, domain order, vector tags, V domains shown, not shown: another chain or arm of the molecule; small tags and cut ends)
VH: QVQLVESGGGVVQPGRSLRLSCAASGFTFSNSGIHWVRQAPGKGLEWVAVISYDGSNKFYADSVKGRFTISRDNSKNTLYLQMNSLRAEDTAVYYCAKLRDNGEYLDYWGQGTLVTVSS
VL: NFMLTQPHSVSESPGKTVTISCTGSGGSIDRNYVQWYQQRPGSAPITVIYEDNQRPSGVPDRFSGSIDSSSNSASLTISGLRTDDEADYYCQSYDSINLWVFGGGTKVTVL
As to B3, in the assay with recombinant human IP-10 [1], the Calcium flux IC50 (nM); hCXCR3-expressing L1.2 cells, 10 nM hIP-10 was 14 nM and the Chemotaxis IC50 (nM); hCXCR3-expressing L1.2 cells, 1 nM hIP-10 is 1.8 nM.

B4: CC21R3P1_F1 (IgG1 format) (antibody, V domains shown)
VH: QVQLVESGGGVVQPGRSHTLSCAASGFAFKNSGIHWVRQAPGKGLEWVAVISYDGSNKFYADSVKGRFTISRDNSQNTVYLQMTDLRPDDTAVYYCARDGSESEYLDYWGKGTLVTVSS
VL: NFMLTQPHSVSESPGKTVTISCTGSGGSIDRNYVQWYQQRPGSAPITVIYEDNQRPSGVPDRFSGSIDSSSNSASLTISGLRTDDEADYYCQSYDSINLWVFGGGTKVTVL
With B4, the Kd in the assay with recombinant human IP-10 [2] worked out at 90.2 nM.

As usually defined, the Kd is the equilibrium constant for the complex coming apart.
